Experimental data: paper doi:10.1101/2020.08.16.253294 (bioRxiv, 2020)

B1: extracellular domain of ZIP4 from Pteropus alecto (black fruit bat), wild type (domain or fragment)
chain: SGQGALDRVALGGLLNTLAARVHCTSGPCGKCLSVDDLLALGRPEEPGHLARLSAAAALYLSDPEGTCEDIRAGRWASRADHLLALLEGPKALAPGLSRLLQRIQAQTTGQPSAGEACVDPPQLLREAGVAGAPGSPGPVLATLLEHVGRGSCFHTLPTPQYFVDFVFQQSHGNTPNISVAELAALMQRLGVGGVTETHSDHHHQEKRVNRQGPTPLTAPNSSSDTWDTVCLSARDVMAVYGLSEQTGVTPEAWAQLSPALLQQQLSGACSPQPSHPAQNQLSQAEK
B2: pZIP4-ECD Q299H variant (domain or fragment)
chain: SGQGALDRVALGGLLNTLAARVHCTSGPCGKCLSVDDLLALGRPEEPGHLARLSAAAALYLSDPEGTCEDIRAGRWASRADHLLALLEGPKALAPGLSRLLQRIQAQTTGQPSAGEACVDPPQLLREAGVAGAPGSPGPVLATLLEHVGRGSCFHTLPTPQYFVDFVFQQSHGNTPNISVAELAALMQRLGVGGVTETHSDHHHQEKRVNRQGPTPLTAPNSSSDTWDTVCLSARDVMAVYGLSEQTGVTPEAWAQLSPALLQHQLSGACSPQPSHPAQNQLSQAEK
B3: pZIP4-ECD A91T variant (domain or fragment)
chain: SGQGALDRVALGGLLNTLAARVHCTSGPCGKCLSVDDLLALGRPEEPGHLARLSATAALYLSDPEGTCEDIRAGRWASRADHLLALLEGPKALAPGLSRLLQRIQAQTTGQPSAGEACVDPPQLLREAGVAGAPGSPGPVLATLLEHVGRGSCFHTLPTPQYFVDFVFQQSHGNTPNISVAELAALMQRLGVGGVTETHSDHHHQEKRVNRQGPTPLTAPNSSSDTWDTVCLSARDVMAVYGLSEQTGVTPEAWAQLSPALLQQQLSGACSPQPSHPAQNQLSQAEK
B4: pZIP4-ECD P193L variant (domain or fragment)
chain: SGQGALDRVALGGLLNTLAARVHCTSGPCGKCLSVDDLLALGRPEEPGHLARLSAAAALYLSDPEGTCEDIRAGRWASRADHLLALLEGPKALAPGLSRLLQRIQAQTTGQPSAGEACVDPPQLLREAGVAGAPGSPGPVLATLLEHVGRGSCFHTLLTPQYFVDFVFQQSHGNTPNISVAELAALMQRLGVGGVTETHSDHHHQEKRVNRQGPTPLTAPNSSSDTWDTVCLSARDVMAVYGLSEQTGVTPEAWAQLSPALLQQQLSGACSPQPSHPAQNQLSQAEK
B5: pZIP4-ECD R87C variant (domain or fragment)
chain: SGQGALDRVALGGLLNTLAARVHCTSGPCGKCLSVDDLLALGRPEEPGHLACLSAAAALYLSDPEGTCEDIRAGRWASRADHLLALLEGPKALAPGLSRLLQRIQAQTTGQPSAGEACVDPPQLLREAGVAGAPGSPGPVLATLLEHVGRGSCFHTLPTPQYFVDFVFQQSHGNTPNISVAELAALMQRLGVGGVTETHSDHHHQEKRVNRQGPTPLTAPNSSSDTWDTVCLSARDVMAVYGLSEQTGVTPEAWAQLSPALLQQQLSGACSPQPSHPAQNQLSQAEK
B6: pZIP4-ECD C64R variant (domain or fragment)
chain: SGQGALDRVALGGLLNTLAARVHCTSGPRGKCLSVDDLLALGRPEEPGHLARLSAAAALYLSDPEGTCEDIRAGRWASRADHLLALLEGPKALAPGLSRLLQRIQAQTTGQPSAGEACVDPPQLLREAGVAGAPGSPGPVLATLLEHVGRGSCFHTLPTPQYFVDFVFQQSHGNTPNISVAELAALMQRLGVGGVTETHSDHHHQEKRVNRQGPTPLTAPNSSSDTWDTVCLSARDVMAVYGLSEQTGVTPEAWAQLSPALLQQQLSGACSPQPSHPAQNQLSQAEK

Target: the molecule itself
Test: SEC

Row | Protein | stoichiometry N
1 | B1 | 2
2 | B2 | 2
3 | B3 | 2
4 | B4 | 2
5 | B5 | 2
6 | B6 | 2
